# Legend:
# S. aureus LukF = S. aureus LukF (Staphylococcus aureus); test: method not stated at Table 8; BLI (Octet) is described in Example 4
# LukSF [1] = target: T1, LukSF (Staphylococcus aureus); test: cell-based or functional assay
# HlgAB [2] = target: T2, HlgAB (Staphylococcus aureus, UniProt P0A074 30-309); test: cell-based or functional assay
# T2 sequence 1: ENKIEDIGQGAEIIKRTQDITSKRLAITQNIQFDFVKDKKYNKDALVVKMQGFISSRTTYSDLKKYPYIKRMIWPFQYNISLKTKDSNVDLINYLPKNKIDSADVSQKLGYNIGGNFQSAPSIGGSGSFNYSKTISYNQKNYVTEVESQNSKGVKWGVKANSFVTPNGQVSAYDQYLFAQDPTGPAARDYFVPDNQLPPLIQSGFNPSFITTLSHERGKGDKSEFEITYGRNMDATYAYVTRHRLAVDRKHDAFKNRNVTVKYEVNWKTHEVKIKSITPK
# T2 sequence 2: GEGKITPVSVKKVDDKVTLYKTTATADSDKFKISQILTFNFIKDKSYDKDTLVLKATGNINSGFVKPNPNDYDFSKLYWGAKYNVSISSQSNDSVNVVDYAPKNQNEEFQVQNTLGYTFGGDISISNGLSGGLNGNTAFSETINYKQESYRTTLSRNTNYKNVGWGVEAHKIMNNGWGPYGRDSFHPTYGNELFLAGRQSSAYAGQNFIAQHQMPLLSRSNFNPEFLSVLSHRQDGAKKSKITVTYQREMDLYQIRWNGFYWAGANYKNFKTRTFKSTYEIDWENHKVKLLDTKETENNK
# LukSF [3] = target: T1, LukSF; test: cell-based or functional assay; remark: listed apart in the source
# HlgAB [4] = target: T2, HlgAB; test: cell-based or functional assay; remark: listed apart in the source
# LukSF [5] = target: T1, LukSF; test: cell-based or functional assay; remark: listed apart in the source
# HlgAB [6] = target: T2, HlgAB; test: cell-based or functional assay; remark: listed apart in the source
Binder,Kd (S. aureus LukF) [nM],IC50 (LukSF) HL-60 (LukSF [1]) [µg/mL],IC50 (HIgAB) HL-60 (HlgAB [2]) [µg/mL],IC50 Fold loss vs. WT (LukSF) (LukSF [3]) [fold],IC50 for LukSF (LukSF [3]) [µg/mL],IC50 Fold loss vs. WT (HIgAB) (HlgAB [4]) [fold],IC50 for HIgAB (HlgAB [4]) [µg/mL],IC50 (LukSF) HL-60; Dark sample (LukSF [5]) [µg/mL],IC50 (LukSF) HL-60; Light sample (LukSF [5]) [µg/mL],IC50 (HIgAB) HL-60; Dark sample (HlgAB [6]) [µg/mL],IC50 (HIgAB) HL-60; Light sample (HlgAB [6]) [µg/mL]
"SAN481-TF-YTE (antibody, V domains shown, also called QD4; SAN481-VH28T100E-YTE) VH: QLQLVESGGGAVQPGRSLKLSCAASGFTFSTYAMHWVRQAPGRGLEWVAVTSFDGSNEYYIDSVKGRFTISRDNTKNTLYLQMTGLRVEDTALYFCARDEYTGGFYSVGYWGQGTLVTVSS VL: QSVLTQPPSASGTPGQRVTISCSGNSYNIGSNSVYWYQQFPGTAPKLLISRSIQRPSGVPDRFSGSKSVTSASLAISGLRSEDEADYYCAAWDDSLRAWVFGGGTKLTVLG",1.21,0.81,0.44,5.07,0.811,0.775,0.441,,,,
"SAN481-SY-YTE (antibody, V domains shown, also called QD2; SAN481VL26S32Y-YTE) VH: QLQLVESGGGAVQPGRSLKLSCAASGFNFSTYAMHWVRQAPGRGLEWVAVTSFDGSNEYYIDSVKGRFTISRDNTKNTLYLQMTGLRVEDTALYFCARDEYTGGWYSVGYWGQGTLVTVSS VL: QSVLTQPPSASGTPGQRVTISCSGSSYNIGSNYVYWYQQFPGTAPKLLISRSIQRPSGVPDRFSGSKSVTSASLAISGLRSEDEADYYCAAWDDSLRAWVFGGGTKLTVLG",0.101,0.18,0.55,1.14,0.183,0.97,0.551,0.221,0.241,0.721,0.736
"SAN481-T-YTE (antibody, V domains shown, also called QD3; SAN481VH28T-YTE) VH: QLQLVESGGGAVQPGRSLKLSCAASGFTFSTYAMHWVRQAPGRGLEWVAVTSFDGSNEYYIDSVKGRFTISRDNTKNTLYLQMTGLRVEDTALYFCARDEYTGGWYSVGYWGQGTLVTVSS VL: QSVLTQPPSASGTPGQRVTISCSGNSYNIGSNSVYWYQQFPGTAPKLLISRSIQRPSGVPDRFSGSKSVTSASLAISGLRSEDEADYYCAAWDDSLRAWVFGGGTKLTVLG",< 0.001,0.17,0.54,1.04,0.166,0.948,0.539,0.193,0.205,0.707,0.624

# Reference: patent publication US20200109190A1 (AstraZeneca / MedImmune, published 2020)
